Test [1] deals with T1, HA-tagged human APOBEC3A (A3A-HA) (human, UniProt P31941 1-199).
T1 construct: Expressed by transient transfection in 293T cells; lysate resolved by SDS-PAGE (denatured) for the immunoblot; not shown: HA tag
Briefly: immunoblot of 293T lysates with A3-HA proteins (FIG. 3), hybridoma supernatant. An excerpt:
(§1) Cell lysates from 293T cells transiently transfected with each HA-tagged APOBEC3 protein (A3A-HA, A3B-HA, A3C-HA, A3D-HA, A3F-HA, A3G-HA, A3H-HA) or the expression vector alone were resolved by 12% SDS-PAGE and transferred to PVDF membrane. […] Membranes were further probed with the appropriate secondary antibodies including anti-rabbit IgG IR800CW (Odyssey 926-32211, LI-COR Biosciences, Lincoln, Nebr.) 1/20,000 or anti-mouse IgG IR800CW (Odyssey 827-08364, LI-COR Biosciences, Lincoln, Nebr.) 1/20,000 in 50% Blok (WBAVDP001, Millipore, Darmstadt, Germany) in PBS-T, (PBS, 0.1% Tween-20) and images were generated using LI-COR imaging (LI-COR Biosciences, Lincoln, Nebr.).

The target of test [2] is T2, HA-tagged human APOBEC3B (A3B-HA) (human, UniProt Q9UH17 1-382).
T2 construct: Expressed by transient transfection in 293T cells; lysate resolved by SDS-PAGE (denatured) for the immunoblot; not shown: HA tag
T2 sequence (Q9UH17 whole entry): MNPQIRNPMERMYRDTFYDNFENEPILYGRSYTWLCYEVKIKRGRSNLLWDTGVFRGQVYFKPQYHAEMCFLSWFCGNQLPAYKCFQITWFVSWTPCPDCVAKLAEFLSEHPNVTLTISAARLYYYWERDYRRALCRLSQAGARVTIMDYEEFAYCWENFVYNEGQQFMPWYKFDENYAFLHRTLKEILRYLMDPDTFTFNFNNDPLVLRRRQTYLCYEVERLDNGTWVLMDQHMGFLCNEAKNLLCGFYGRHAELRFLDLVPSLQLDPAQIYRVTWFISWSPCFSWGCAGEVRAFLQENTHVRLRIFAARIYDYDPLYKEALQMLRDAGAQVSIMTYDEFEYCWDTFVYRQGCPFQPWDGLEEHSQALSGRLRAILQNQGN
The test is described as above.
Source text: as §1

Test [3] deals with T3, endogenous human APOBEC3B (A3B) of cancer cell lines (human, UniProt Q9UH17 1-382).
T3 construct: whole, on cells; Untagged endogenous, intracellular protein: detected in fixed and permeabilised cells (immunofluorescence, flow cytometry) and in cell lysates (immunoblot); also called endogenous A3B
T3 sequence (Q9UH17 whole entry): as above
Briefly: intracellular flow cytometry, OVCAR5 and MDA-MB-468 cells with control or A3B shRNA. How it is done:
OVCAR5 (Monks et al., 1991, J. Natl. Cancer Inst. 83:757-766) and MDA-MB-468 (ATCC HTB-132, ATCC, Manassas, Va.) cells were transduced with lentiviruses encoding either a control or A3B-specific shRNA. Following drug selection (puromycin), cells were fixed in 1% paraformaldehyde and permeabilized in cold methanol. […] After a single PBS wash to remove unbound antibody, cells were analyzed on a flow cytometer.

Test [4] addresses T2, HA-tagged human APOBEC3B (A3B-HA). Briefly: hybridoma screening (ELISA-positive clones, then immunoblot of A3-HA lysates and immunofluorescence).

T1 sequence (P31941 whole entry): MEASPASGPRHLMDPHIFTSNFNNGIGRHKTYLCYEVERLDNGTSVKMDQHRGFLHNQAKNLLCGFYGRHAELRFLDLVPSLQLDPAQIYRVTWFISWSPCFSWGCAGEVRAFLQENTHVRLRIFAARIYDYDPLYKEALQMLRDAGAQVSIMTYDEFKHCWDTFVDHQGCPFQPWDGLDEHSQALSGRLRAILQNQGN

B1: monoclonal antibody produced by hybridoma cell line 5210-87-13 (antibody, V domains shown)
VH: QSVKESEGGLFKPTDTLTLTCTVSGFSLSSYRMHWVRQAPGNGLEWIGSISSGGNAAYARWANTRSTITRNTNLNTVTLKMTSLTAADTATYFCGSNVIWGPGTLVTVSS
VL: DPVLTQTPSSVSAAVGGTVTISCQSSESVFKKNWLAWYHQKPGQSPKRLIYGASTLESGAPSRFRGSGSGTQFTLTISDLECGDAATYYCAGAFDGNIYPFGGGTEVVVKG
notes: Rabbit monoclonal antibody; hybridoma supernatant in the screens, mAb preparation in the work on endogenous A3B; The Ig chain entries come from cDNA and may include a leader peptide; no cleavage site stated
For the molecule B1, the binding result in test [1], in test [2] and in test [3] was “binds” throughout.

B2: monoclonal antibody produced by hybridoma cell line 5210-08-15 (antibody, V domains shown)
VH: QEQLEESGGGLVKPGGTLTLTCKASGFSFSDGYWMCWIRQAPGKGLEWIGCIYDASGGAYFPSWAKGRFTISKTSSTTVTLEMTSLTDADTAIYFCVKTDYGSSKLWGPGTLVTVSS
VL: AVVLTQTASPVSAPVGGTVTINCQASQNIYSNLAWYQQKPGQPPKLLIYGASTLASGVSSRFKGSRSGTEFTLTISDLECADAATYYCQSYVYSSSTADTFGGGTKVVVEV
notes: Rabbit monoclonal antibody, tested as hybridoma culture supernatant; The Ig chain entries come from cDNA and may include a leader peptide; no cleavage site stated
With B2, the binding result in test [1] and in test [4] was “binds” each time.
